From publication PMC5387740

Target: osteopontin (UniProt P10451)
UniProt P10451, sequence (P10451 17-314): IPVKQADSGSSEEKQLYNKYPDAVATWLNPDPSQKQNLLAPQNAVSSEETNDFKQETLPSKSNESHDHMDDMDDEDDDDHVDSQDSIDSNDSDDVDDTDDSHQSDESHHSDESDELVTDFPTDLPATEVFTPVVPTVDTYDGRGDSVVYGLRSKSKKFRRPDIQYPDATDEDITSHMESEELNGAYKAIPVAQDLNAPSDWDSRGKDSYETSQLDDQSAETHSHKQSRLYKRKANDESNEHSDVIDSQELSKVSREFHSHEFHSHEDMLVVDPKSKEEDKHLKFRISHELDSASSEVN

For integrin alpha v (αV) (receptor), which PDGF-BB-stimulated fibroblast migration on osteopontin (monolayer wound closure, 24 h): inhibition by integrin αV blocking antibody in the panel of integrin blocking antibodies (Fig. 3B) is on record?
The PDGF-BB-stimulated fibroblast migration on osteopontin (monolayer wound closure, 24 h): inhibition by integrin αV blocking antibody in the panel of integrin blocking antibodies (Fig. 3B) was 92%.

What about the PDGF-BB-stimulated fibroblast migration on osteopontin (monolayer wound closure, 24 h): reduction by integrin αV blocking antibody compared to control IgG (Fig. 3A) of the same substance?
Its PDGF-BB-stimulated fibroblast migration on osteopontin (monolayer wound closure, 24 h): reduction by integrin αV blocking antibody compared to control IgG (Fig. 3A) is 91%.
